From patent EP4737480A1 (Japan Science and Technology Agency, dated 2026) come the findings set out here.

The test concerns the target recombinant HER2 molecule (UniProt P04626 23-652). As to the kind of experiment: BLI (Octet N1), HER2 on streptavidin biosensor. On the technique in general: In BLI a coated tip is dipped into the sample, and binding shifts an interference pattern.

B1: trastuzumab light chain P95ΔP96Δ (other)
light: DIQMTQSPSSLSASVGDRVTITCRASQDVNTAVAWYQQKPGKAPKLLIYSASFLYSGVPSRFSGSRSGTDFTLTISSLQPEDFATYYCQQHYTTTFGQGTKVEIKRTVAAPSVFIFPPSDEQLKSGTASVVCLLNNFYPREAKVQWKVDNALQSGNSQESVTEQDSKDSTYSLSSTLTLSKADYEKHKVYACEVTHQGLSSPVTKSFNRGEC
notes: also called Tmb-L-PPΔ; Tmb-L-PΔΔ
The term Kd denotes the equilibrium constant for the complex coming apart. One may read the koff as a measure of how fast the partners let go of each other. One may read the kon as the rate constant with which the complex forms. B1: the Kd is 123 nM, the koff is 0.00258 s⁻¹ and the kon stood at 20900 M⁻¹ s⁻¹.
